Literature values, collected in publication PMC7662862.

Key:
[1] = biological target: Merlin N-terminal part (FERM) (Homo sapiens) (UniProt P35240); assay: SPR
[2] = biological target: CRB3 (Homo sapiens) (UniProt Q9BUF7); assay: ITC
Sequence of UniProt Q9BUF7 (Q9BUF7 27-120): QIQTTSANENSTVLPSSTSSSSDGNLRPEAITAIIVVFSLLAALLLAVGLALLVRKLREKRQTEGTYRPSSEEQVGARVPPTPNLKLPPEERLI

Sequence of UniProt P35240 (P35240 22-311): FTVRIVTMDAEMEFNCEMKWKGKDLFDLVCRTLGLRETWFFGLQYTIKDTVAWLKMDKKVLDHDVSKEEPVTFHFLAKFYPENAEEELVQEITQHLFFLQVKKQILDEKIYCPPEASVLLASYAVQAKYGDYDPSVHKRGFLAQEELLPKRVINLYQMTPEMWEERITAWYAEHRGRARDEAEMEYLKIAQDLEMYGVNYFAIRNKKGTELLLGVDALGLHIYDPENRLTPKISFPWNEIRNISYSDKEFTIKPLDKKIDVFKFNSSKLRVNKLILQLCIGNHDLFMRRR

Kd [1]	Kd [2]	Substance
0.0037 µM	–	MPP1 (from UniProt Q00013)
–	0.07 µM	MPP5 PDZ-SH3-GUK (from UniProt Q8N3R9)
